Reference: patent US20130274124A1

Assays:
Experiment in all cases: cell-based or functional assay
[1] = target: collagen I/laminin (hit ECM combination) (human) (UniProt P02452)
[2] = target: collagen II/galectin-4 (hit ECM combination) (human) (UniProt P02458)
[3] = target: collagen IV/galectin-8 (hit ECM combination) (human) (UniProt P02462)

Measured: reduction of cellular attachment after blocking the integrin with an antibody

Chain of collagen IV/galectin-8 (hit ECM combination) (human) (P02462 173-1669 P555T limits assumed, chain 1 of 2): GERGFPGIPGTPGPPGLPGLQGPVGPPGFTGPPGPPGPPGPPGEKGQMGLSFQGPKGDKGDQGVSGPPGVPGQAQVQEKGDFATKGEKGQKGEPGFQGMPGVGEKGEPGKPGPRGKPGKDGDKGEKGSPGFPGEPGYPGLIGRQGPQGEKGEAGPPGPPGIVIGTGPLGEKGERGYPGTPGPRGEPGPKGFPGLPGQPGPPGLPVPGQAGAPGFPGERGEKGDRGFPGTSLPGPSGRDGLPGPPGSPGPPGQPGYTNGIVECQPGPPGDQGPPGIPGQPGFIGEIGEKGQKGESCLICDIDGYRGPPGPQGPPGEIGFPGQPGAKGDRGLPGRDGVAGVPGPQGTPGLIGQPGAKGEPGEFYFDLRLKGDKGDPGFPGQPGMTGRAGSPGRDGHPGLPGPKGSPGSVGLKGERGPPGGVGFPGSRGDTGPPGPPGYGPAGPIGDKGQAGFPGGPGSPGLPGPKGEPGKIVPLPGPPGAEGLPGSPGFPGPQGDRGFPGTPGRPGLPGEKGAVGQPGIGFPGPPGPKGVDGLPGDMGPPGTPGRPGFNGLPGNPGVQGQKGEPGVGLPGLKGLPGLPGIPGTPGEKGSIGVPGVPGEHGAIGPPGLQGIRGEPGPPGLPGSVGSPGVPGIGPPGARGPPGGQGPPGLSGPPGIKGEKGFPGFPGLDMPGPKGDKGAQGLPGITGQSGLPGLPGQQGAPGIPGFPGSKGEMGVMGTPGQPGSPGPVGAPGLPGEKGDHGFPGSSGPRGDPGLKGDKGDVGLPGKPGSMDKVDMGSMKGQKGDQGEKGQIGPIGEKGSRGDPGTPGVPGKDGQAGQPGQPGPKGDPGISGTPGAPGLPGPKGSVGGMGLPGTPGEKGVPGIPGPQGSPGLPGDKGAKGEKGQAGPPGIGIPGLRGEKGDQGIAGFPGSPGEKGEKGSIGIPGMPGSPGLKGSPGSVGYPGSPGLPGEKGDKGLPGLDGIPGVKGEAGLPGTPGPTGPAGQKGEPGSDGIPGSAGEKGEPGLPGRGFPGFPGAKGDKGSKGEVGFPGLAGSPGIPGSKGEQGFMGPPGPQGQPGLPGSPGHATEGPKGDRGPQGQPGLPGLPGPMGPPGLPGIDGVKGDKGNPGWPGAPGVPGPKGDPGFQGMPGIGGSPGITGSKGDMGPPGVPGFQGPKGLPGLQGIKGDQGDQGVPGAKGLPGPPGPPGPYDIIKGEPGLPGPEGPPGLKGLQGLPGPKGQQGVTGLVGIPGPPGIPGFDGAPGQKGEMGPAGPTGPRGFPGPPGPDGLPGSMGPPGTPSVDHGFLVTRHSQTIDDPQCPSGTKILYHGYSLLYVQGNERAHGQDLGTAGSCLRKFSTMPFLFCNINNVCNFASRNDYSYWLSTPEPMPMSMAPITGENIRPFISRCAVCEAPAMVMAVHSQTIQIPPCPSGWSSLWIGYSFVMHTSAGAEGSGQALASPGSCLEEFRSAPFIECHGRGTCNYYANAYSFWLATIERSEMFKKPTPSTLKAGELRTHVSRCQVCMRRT
Chain of collagen IV/galectin-8 (hit ECM combination) (human) (chain, as listed by the source limits assumed, chain 2 of 2): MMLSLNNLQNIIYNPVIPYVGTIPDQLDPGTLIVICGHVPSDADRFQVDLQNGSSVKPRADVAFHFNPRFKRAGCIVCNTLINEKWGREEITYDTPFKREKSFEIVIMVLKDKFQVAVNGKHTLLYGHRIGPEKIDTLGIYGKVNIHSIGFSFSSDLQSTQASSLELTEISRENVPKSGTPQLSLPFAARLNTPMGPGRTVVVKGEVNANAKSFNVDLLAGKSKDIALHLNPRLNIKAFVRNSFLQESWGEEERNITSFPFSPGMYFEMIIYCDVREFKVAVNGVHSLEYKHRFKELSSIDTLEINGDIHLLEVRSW
Chain of collagen I/laminin (hit ECM combination) (human) (P02452 162-1218 limits assumed, chain 1 of 2): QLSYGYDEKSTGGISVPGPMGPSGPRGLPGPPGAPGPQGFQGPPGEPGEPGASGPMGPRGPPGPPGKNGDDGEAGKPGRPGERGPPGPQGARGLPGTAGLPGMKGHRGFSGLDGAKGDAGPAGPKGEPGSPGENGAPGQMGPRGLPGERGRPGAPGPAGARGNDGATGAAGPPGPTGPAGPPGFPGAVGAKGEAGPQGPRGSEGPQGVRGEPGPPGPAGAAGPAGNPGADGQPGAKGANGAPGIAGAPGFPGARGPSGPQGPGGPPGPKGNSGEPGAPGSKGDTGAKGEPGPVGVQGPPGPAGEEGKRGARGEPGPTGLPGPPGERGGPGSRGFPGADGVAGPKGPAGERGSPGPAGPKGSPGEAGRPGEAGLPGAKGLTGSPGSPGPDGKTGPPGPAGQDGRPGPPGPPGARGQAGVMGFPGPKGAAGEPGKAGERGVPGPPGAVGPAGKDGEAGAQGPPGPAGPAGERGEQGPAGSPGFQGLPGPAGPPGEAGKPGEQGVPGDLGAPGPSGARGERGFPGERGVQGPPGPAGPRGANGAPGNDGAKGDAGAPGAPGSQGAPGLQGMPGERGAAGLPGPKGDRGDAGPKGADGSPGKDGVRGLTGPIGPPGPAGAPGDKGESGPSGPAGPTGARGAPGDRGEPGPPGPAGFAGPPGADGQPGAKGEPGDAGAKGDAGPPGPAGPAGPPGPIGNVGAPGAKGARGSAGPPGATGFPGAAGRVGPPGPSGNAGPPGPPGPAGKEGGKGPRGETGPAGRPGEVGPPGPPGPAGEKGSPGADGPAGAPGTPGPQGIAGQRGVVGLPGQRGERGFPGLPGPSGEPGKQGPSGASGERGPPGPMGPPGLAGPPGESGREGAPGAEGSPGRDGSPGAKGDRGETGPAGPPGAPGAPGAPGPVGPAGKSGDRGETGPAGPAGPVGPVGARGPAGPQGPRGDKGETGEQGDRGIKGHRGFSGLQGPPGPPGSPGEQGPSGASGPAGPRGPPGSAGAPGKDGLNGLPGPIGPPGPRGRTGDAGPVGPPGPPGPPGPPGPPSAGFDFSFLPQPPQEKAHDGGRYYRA
Chain of collagen I/laminin (hit ECM combination) (human) (chain, as listed by the source limits assumed, chain 2 of 2): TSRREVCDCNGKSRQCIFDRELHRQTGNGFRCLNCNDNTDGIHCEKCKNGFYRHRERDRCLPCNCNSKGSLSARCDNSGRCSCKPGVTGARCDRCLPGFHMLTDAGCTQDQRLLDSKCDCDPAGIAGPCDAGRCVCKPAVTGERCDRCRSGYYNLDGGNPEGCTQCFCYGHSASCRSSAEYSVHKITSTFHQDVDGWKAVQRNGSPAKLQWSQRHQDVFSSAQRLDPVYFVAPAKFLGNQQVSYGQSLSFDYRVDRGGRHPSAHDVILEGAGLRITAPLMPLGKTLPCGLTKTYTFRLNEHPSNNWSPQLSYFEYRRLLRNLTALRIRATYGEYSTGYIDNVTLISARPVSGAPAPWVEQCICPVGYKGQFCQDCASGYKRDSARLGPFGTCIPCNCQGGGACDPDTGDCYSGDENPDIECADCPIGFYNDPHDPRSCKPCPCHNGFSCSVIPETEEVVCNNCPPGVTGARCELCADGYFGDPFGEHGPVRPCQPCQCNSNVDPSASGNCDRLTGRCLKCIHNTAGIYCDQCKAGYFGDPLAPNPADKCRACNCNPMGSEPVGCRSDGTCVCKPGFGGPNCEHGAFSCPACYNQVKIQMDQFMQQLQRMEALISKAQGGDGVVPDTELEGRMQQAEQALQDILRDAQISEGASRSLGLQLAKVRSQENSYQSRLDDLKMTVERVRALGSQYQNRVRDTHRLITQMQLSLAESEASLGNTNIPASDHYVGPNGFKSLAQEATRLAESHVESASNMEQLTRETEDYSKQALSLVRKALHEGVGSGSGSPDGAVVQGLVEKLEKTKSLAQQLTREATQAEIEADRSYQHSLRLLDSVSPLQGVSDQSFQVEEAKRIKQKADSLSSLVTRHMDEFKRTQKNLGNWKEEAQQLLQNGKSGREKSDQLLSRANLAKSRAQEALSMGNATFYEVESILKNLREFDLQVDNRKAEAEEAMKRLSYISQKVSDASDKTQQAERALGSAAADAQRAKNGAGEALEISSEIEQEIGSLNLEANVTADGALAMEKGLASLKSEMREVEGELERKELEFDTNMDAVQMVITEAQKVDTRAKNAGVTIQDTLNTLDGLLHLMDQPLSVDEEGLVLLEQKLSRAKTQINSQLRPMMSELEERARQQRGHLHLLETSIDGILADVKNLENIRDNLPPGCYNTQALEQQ

α1 integrin (from UniProt P56199 29-1179) (receptor)
50%: all assays above
